The values below come from paper PMC5120336, “The N-terminal loop of IRAK-4 death domain regulates ordered assembly of the Myddosome signalling scaffold” (Scientific Reports, 2016).

Data set [1] deals with the molecule itself. Nature of the data set: SEC; Myddosome assembly assay: death domains alone or mixed 1:1, concentrated to 0.5 mg.ml^-1, calibrated TSKgel SuperSW3000 analytical size exclusion column, 0.3 ml.min^-1, peaks analysed by reducing SDS-PAGE.
The target of another data set is T1, MyD88 (LUMIER construct) (human, UniProt Q99836 1-296).
T1 construct: MyD88, human
The data set can be described thus: LUMIER; affinity purification of Protein A tagged proteins on magnetic IgG beads (Dynabeads M-280, sheep anti-rabbit IgG); co-purified protein detected by Renilla luciferase activity. Particulars: partners not purified.

B1: MyD88 containing the death domain and intermediate domain (aa 1 to 158) (domain or fragment, human, UniProt Q99836 1-158, looked up)
chain: MAAGGPGAGSAAPVSSTSSLPLAALNMRVRRRLSLFLNVRTQVAADWTALAEEMDFEYLEIRQLETQADPTGRLLDAWQGRPGASVGRLLELLTKLGRDDVLLELGPSIEEDCQKYILKQQQEEAEKPLQVAAVDSSVPRTAELAGITTLDDPLGHMP
notes: MyD88, human, death domain and intermediate domain, aa 1 to 158; Alone it elutes as a dimer (35 kDa) on size exclusion; also called MyD88 DD; MyD88 death domain; source: E. coli BL21 Star (DE3), purified (GSTrap with on-column Tev cleavage, HisTrap, Superdex 75); not shown: 6xHis-GST, N-terminal, cleaved
For B1, the “stoichiometry N” value in data set [1] came out at 2.

B2: IRAK-4 kinase dead mutant (KK213AA) (LUMIER construct) (natural protein, human, UniProt Q9NWZ3 1-460, looked up)
chain: MNKPITPSTYVRCLNVGLIRKLSDFIDPQEGWKKLAVAIKKPSGDDRYNQFHIRRFEALLQTGKSPTSELLFDWGTTNCTVGDLVDLLIQNEFFAPASLLLPDAVPKTANTLPSKEAITVQQKQMPFCDKDRTLMTPVQNLEQSYMPPDSSSPENKSLEVSDTRFHSFSFYELKNVTNNFDERPISVGGNKMGEGGFGVVYKGYVNNTTVAVAALAAMVDITTEELKQQFDQEIKVMAKCQHENLVELLGFSSDGDDLCLVYVYMPNGSLLDRLSCLDGTPPLSWHMRCKIAQGAANGINFLHENHHIHRDIKSANILLDEAFTAKISDFGLARASEKFAQTVMTSRIVGTTAYMAPEALRGEITPKSDIYSFGVVLLEIITGLPAVDEHREPQLLLDIKEEIEDEEKTIEDYIDKKMNDADSTSVEAMYSVASQCLHEKKNKRPDIKKVQQLLQEMTAS
notes: IRAK-4, human; also called kinase dead IRAK-4; KD
For the molecule B2, the “fold binding against wild-type IRAK-4” value with MyD88 (LUMIER construct) is ~5 fold.
